{"source": "patent US20220332804A1", "about": "(CSL INNOVATION, published 2022)", "binders": {"B1": {"name": "RF16-226 (antibody, human IgG4 S228P, lambda)", "heavy": "not shown", "light": "SYELTQPPSVSVSPGQTARITCSGDALTSKYVAWYQQKSGLAPLLVIYEDTRRPSGIPAKFSGSSSGSVATLTISGAHGDDEADYYCYSTDASGHQRVFGGGTKLTVLSQPKAAPSVTLFPPSSEELQANKATLVCLISDFYPGAVTVAWKADGSPVKAGVETTKPSKQSNNKYAASSYLSLTPEQWKSHRSYSCQVTHEGSTVEKTVAPTECS", "notes": "pH-dependent anti-C2 antibody from a phage display library; also called WT"}}, "experiment_in_all_cases": "SPR, antibody captured, C2 as analyte;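 also: biacore SPR at 37 °C, anti-C2 mAbs captured via goat anti-human IgG on CM5 chips, double-referenced sensorgrams fit to a 1:1 kinetic or steady-state model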", "key": {"[1]": {"target": "T1, human C2 I320A (human, UniProt P06681 21-752)", "T1 sequence": "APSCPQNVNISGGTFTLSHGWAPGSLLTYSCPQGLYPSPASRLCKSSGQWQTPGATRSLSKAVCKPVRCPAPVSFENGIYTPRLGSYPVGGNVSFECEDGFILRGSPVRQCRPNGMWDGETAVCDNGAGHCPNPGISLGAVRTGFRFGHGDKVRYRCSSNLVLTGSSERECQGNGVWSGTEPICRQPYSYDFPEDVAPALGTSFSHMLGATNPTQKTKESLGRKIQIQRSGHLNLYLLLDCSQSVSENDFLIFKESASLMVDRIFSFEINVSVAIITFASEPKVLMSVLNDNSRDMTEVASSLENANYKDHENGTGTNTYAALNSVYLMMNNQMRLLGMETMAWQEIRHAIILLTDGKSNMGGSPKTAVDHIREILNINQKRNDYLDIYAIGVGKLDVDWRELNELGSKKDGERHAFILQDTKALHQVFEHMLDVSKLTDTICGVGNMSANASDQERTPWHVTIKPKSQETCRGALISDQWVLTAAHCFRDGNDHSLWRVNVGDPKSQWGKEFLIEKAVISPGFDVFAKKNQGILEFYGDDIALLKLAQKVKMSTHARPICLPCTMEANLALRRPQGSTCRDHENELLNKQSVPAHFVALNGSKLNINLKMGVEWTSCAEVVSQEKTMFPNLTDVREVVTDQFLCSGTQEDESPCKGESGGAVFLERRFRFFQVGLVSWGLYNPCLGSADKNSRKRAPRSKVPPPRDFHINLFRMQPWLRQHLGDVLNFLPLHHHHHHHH"}, "[2]": {"target": "T2, human C2 S473A (human, UniProt P06681 21-752)", "T2 sequence": "T1 sequence with A300I, S453A"}, "[3]": {"target": "T3, human C2 R493A (human, UniProt P06681 21-752)", "T3 sequence": "T1 sequence with A300I, R473A"}, "[4]": {"target": "T4, human C2 R519A (human, UniProt P06681 21-752)", "T4 sequence": "T1 sequence with A300I, R499A"}}, "note": "Changes are numbered by the printed parent chain."}
{"binder": "B1", "values": [{"measurement": "Kd", "setting": "[1]", "value": 116, "unit": "nM"}, {"measurement": "Kd", "setting": "[2]", "value": 14.2, "unit": "nM"}, {"measurement": "Kd", "setting": "[3]", "value": 24.3, "unit": "nM"}, {"measurement": "Kd", "setting": "[4]", "value": 11.2, "unit": "nM"}]}
